Assay results as given in US20080056997A1.

Target: human domain D of tenascin C (TnC-D) (human) (UniProt P24821)
Test: method not stated in the sentence (ELISA-positive clone, further characterization)

Chain of UniProt P24821 (P24821 1622-1711): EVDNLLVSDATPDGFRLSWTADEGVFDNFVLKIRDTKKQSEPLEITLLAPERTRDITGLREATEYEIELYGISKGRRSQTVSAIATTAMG

factor of affinity improvement compared to scFv(D11): 4.8 fold
B1: scFv(P12) (scFv, part only; not given: VH-VL peptide linker, part only)
scFv, part: EVQLVESGGGLVQPGGSLRLSCAASGFTFGQYSMSWVRQAPGKGLEWVSAITGTGGETYYADSVEGRFTISRDNSKNTLYLQMNSLRAEDTAVYYCAKGRRIFDYWGQGTLVTVSRSSELTQDPAVSVALGQTVRITCQGDSLRRQPASWYQQKPGQAPVLVIYYKKLRPSGIPDRFSGSSSGNTASLTITGAQAEDEADYYCNSFSPKPKPVVFGGGTKLTVLG
